In patent US20220177594A1:

B1: FEL_10F07_2.2 (antibody)
heavy: DVQLVESGGDLVKPGGSLRLTCVASGFTFSSYAMSWVRQAPGKGLQWVAYISSGGDYFYYADTVKGRFTISRDDAKNTLYLQMSSLKTEDTATYYCTGDPITGTFAYWGQGTLVTVSSASTTAPSVFPLAPSCGTTSGATVALACLVLGYFPEPVTVSWNSGALTSGVHTFPAVLQASGLYSLSSMVTVPSSRWLSDTFTCNVAHPPSNTKVDKTVRKTDHPPGPKPCDCPKCPPPEAAGAPSIFIFPPKPKDTLSISRTPEVTCLVVDLGPDDSDVQITWFVDNTQVYTAKTSPREEQFNSTYRVVSVLPILHQDWLKGKEFKCKVNSKSLPSPIERTISKAKGQPHEPQVYVLPPAQEELSRNKVSVTCLIKSFHPPDIAVEWEITGQPEPENNYRTTPPQLDSDGTYFVYSKLSVDRSHWQRGNTYTCSVSHEALHSHHTQKSLTQSPGK
light: DITMTQSPGSLAGSPGQQVTMNCRASQDITNYLNWYQQKPGQHPKLLIYYTSTLHSGVPDRFSGSGSGTDFTLTISNLQAEDVASYYCQQGHMLPWTFGQGTRSDAQPSVFLFQPSLDELHTGSASIVCILNDFYPKEVNVKWKVDGVVQNKGIQESTTEQNSKDSTYSLSSTLTMSSTEYQSHEKFSCEVTHKSLASTLVKSFQRSECQRE
B2: Canine_OSM (ligand)
chain: SCSDKYPELLGQLQKQADFMQHTNTLLDLYIRSQGLDKNGLKEHCRERPGAFPSKDALQRLSRRVFLRTLDTTLGQVLLRLAALEQDIPKAQDLEMLSGVKLNIRGFKNNIHCMAQLLPGSSETTEPTPTSPGASPSPTPTLDTFQRRLEGCRFLHGYHRFMRSVGQVFREWGKSLSRSRR
B3: CAN_19F07_1.1 (antibody)
heavy: EVQLVESGGDLVKPGGSLRLSCVASGFTFSDYYMAWVRQAPGKGLQWVANINYDGSSTYYLDSLKSRFTISRDNAKNTLYLQMNSLRAEDTAMYYCVRGLTWDFDVWGQGTLVTVSSASTTAPSVFPLAPSCGSTSGSTVALACLVSGYFPEPVTVSWNSGSLTSGVHTFPSVLQSSGLYSLSSMVTVPSSRWPSETFTCNVAHPASKTKVDKPVPKRENGRVPRPPDCPKCPAPEMLGGPSVFIFPPKPKDTLLIARTPEVTCVVVDLDPEDPEVQISWFVDGKQMQTAKTQPREEQFNGTYRVVSVLPIGHQDWLKGKQFTCKVNNKALPSPIERTISKARGQAHQPSVYVLPPSREELSKNTVSLTCLIKDFFPPDIDVEWQSNGQQEPESKYRTTPPQLDEDGSYFLYSKLSVDKSRWQRGDTFICAVMHEALHNHYTQESLSHSPGK
light: EIVMTQSPASLSLSQEEKVTITCKASQDVDTAVAWYQQKPGQAPKLLIYLASTRHTGVPSRFSGSGSGTDFSFTISSLEPEDVAVYYCQQYSRFPLTFGQGTRNDAQPAVYLFQPSPDQLHTGSASVVCLLNSFYPKDINVKWKVDGVIQDTGIQESVTEQDKDSTYSLSSTLTMSSTEYLSHELYSCEITHKSLPSTLIKSFQRSEC
B4: CAN_19F07_2.1 (antibody)
heavy: EVQLVESGGDLVKPAGSLTLSCLASGFTFSDYYMAWVRQTPEKGLQWVANINYDGSSTYYLDSLKSRFTISRDNAKNTLYLQMNSLRDEDTAVYYCARGLTWDFDVWGQGTLVTVSSASTTAPSVFPLAPSCGSTSGSTVALACLVSGYFPEPVTVSWNSGSLTSGVHTFPSVLQSSGLYSLSSMVTVPSSRWPSETFTCNVAHPASKTKVDKPVPKRENGRVPRPPDCPKCPAPEMLGGPSVFIFPPKPKDTLLIARTPEVTCVVVDLDPEDPEVQISWFVDGKQMQTAKTQPREEQFNGTYRVVSVLPIGHQDWLKGKQFTCKVNNKALPSPIERTISKARGQAHQPSVYVLPPSREELSKNTVSLTCLIKDFFPPDIDVEWQSNGQQEPESKYRTTPPQLDEDGSYFLYSKLSVDKSRWQRGDTFICAVMHEALHNHYTQESLSHSPGK
light: EIVMTQSPASLSLSQEEKVTITCKASQDVDTAVAWYQQKPGQAPKLLIYLASTRHTGVPSRFSGSGSGTDFSFTISSLEPEDVAVYYCQQYSRFPLTFGQGTRNDAQPAVYLFQPSPDQLHTGSASVVCLLNSFYPKDINVKWKVDGVIQDTGIQESVTEQDKDSTYSLSSTLTMSSTEYLSHELYSCEITHKSLPSTLIKSFQRSEC
B5: CAN_19F07_2.2 (antibody)
heavy: EVQLVESGGDLVKPAGSLTLSCLASGFTFSDYYMAWVRQTPEKGLQWVANINYDGSSTYYLDSLKSRFTISRDNAKNTLYLQMNSLRDEDTAVYYCARGLTWDFDVWGQGTLVTVSSASTTAPSVFPLAPSCGSTSGSTVALACLVSGYFPEPVTVSWNSGSLTSGVHTFPSVLQSSGLYSLSSMVTVPSSRWPSETFTCNVAHPASKTKVDKPVPKRENGRVPRPPDCPKCPAPEMLGGPSVFIFPPKPKDTLLIARTPEVTCVVVDLDPEDPEVQISWFVDGKQMQTAKTQPREEQFNGTYRVVSVLPIGHQDWLKGKQFTCKVNNKALPSPIERTISKARGQAHQPSVYVLPPSREELSKNTVSLTCLIKDFFPPDIDVEWQSNGQQEPESKYRTTPPQLDEDGSYFLYSKLSVDKSRWQRGDTFICAVMHEALHNHYTQESLSHSPGK
light: DIVMTQTPLSLSVSPGETASISCKASQDVDTAVAWFRQKPGQSPQRLIYLASTRHTGVPDRFSGSGSGTDFTLRISRVEADDTGVYYCQQYSRFPLTFGQGTRNDAQPAVYLFQPSPDQLHTGSASVVCLLNSFYPKDINVKWKVDGVIQDTGIQESVTEQDKDSTYSLSSTLTMSSTEYLSHELYSCEITHKSLPSTLIKSFQRSEC
B6: FEL_19F07_1.1 (antibody)
heavy: DVQLVESGGDLVKPGGSLRLTCVASGFTYSDYYMAWVRQAPGKGLQWVANINYDGSSTYYLDSLKSRFTISRDNAKNTLYLQMNSLKTEDTATYYCVRGLTWDFDVWGQGTLVTVSSASTTAPSVFPLAPSCGTTSGATVALACLVLGYFPEPVTVSWNSGALTSGVHTFPAVLQASGLYSLSSMVTVPSSRWLSDTFTCNVAHPPSNTKVDKTVRKTDHPPGPKPCDCPKCPPPEAAGAPSIFIFPPKPKDTLSISRTPEVTCLVVDLGPDDSDVQITWFVDNTQVYTAKTSPREEQFNSTYRVVSVLPILHQDWLKGKEFKCKVNSKSLPSPIERTISKAKGQPHEPQVYVLPPAQEELSRNKVSVTCLIKSFHPPDIAVEWEITGQPEPENNYRTTPPQLDSDGTYFVYSKLSVDRSHWQRGNTYTCSVSHEALHSHHTQKSLTQSPGK
light: EIQMTQSPSSLSASPGDRVTITCKASQDVDTAVAWYQQKPGKVPKLLIYLASTRHTGVPSRFSGSGSGTDFTLTISSLEPEDAATYYCQQYSRFPLTFGQGTRSDAQPSVFLFQPSLDELHTGSASIVCILNDFYPKEVNVKWKVDGVVQNKGIQESTTEQNSKDSTYSLSSTLTMSSTEYQSHEKFSCEVTHKSLASTLVKSFQRSECQRE
B7: FEL_19F07_2.1 (antibody)
heavy: DVQLVESGGNLVKPGGSLRLTCVASGFTFSDYYMAWVRQAPGKGLQWVANINYDGSSTYYLDSLKSRFTISRDNAKNTLYLQMNSLKTEDTATYYCARGLTWDFDVWGQGTLVTVSSASTTAPSVFPLAPSCGTTSGATVALACLVLGYFPEPVTVSWNSGALTSGVHTFPAVLQASGLYSLSSMVTVPSSRWLSDTFTCNVAHPPSNTKVDKTVRKTDHPPGPKPCDCPKCPPPEAAGAPSIFIFPPKPKDTLSISRTPEVTCLVVDLGPDDSDVQITWFVDNTQVYTAKTSPREEQFNSTYRVVSVLPILHQDWLKGKEFKCKVNSKSLPSPIERTISKAKGQPHEPQVYVLPPAQEELSRNKVSVTCLIKSFHPPDIAVEWEITGQPEPENNYRTTPPQLDSDGTYFVYSKLSVDRSHWQRGNTYTCSVSHEALHSHHTQKSLTQSPGK
light: EIQMTQSPSSLSASPGDRVTITCKASQDVDTAVAWYQQKPGKVPKLLIYLASTRHTGVPSRFSGSGSGTDFTLTISSLEPEDAATYYCQQYSRFPLTFGQGTRSDAQPSVFLFQPSLDELHTGSASIVCILNDFYPKEVNVKWKVDGVVQNKGIQESTTEQNSKDSTYSLSSTLTMSSTEYQSHEKFSCEVTHKSLASTLVKSFQRSECQRE
B8: FEL_19F07_1.2 (antibody)
heavy: DVQLVESGGDLVKPGGSLRLTCVASGFTYSDYYMAWVRQAPGKGLQWVANINYDGSSTYYLDSLKSRFTISRDNAKNTLYLQMNSLKTEDTATYYCVRGLTWDFDVWGQGTLVTVSSASTTAPSVFPLAPSCGTTSGATVALACLVLGYFPEPVTVSWNSGALTSGVHTFPAVLQASGLYSLSSMVTVPSSRWLSDTFTCNVAHPPSNTKVDKTVRKTDHPPGPKPCDCPKCPPPEAAGAPSIFIFPPKPKDTLSISRTPEVTCLVVDLGPDDSDVQITWFVDNTQVYTAKTSPREEQFNSTYRVVSVLPILHQDWLKGKEFKCKVNSKSLPSPIERTISKAKGQPHEPQVYVLPPAQEELSRNKVSVTCLIKSFHPPDIAVEWEITGQPEPENNYRTTPPQLDSDGTYFVYSKLSVDRSHWQRGNTYTCSVSHEALHSHHTQKSLTQSPGK
light: DITMTQSPGSLAGSPGQQVTMNCKASQDVDTAVAWYQQKPGQHPKLLIYLASTRHTGVPDRFSGSGSGTDFTLTISNLQAEDVASYYCQQYSRFPLTFGQGTRSDAQPSVFLFQPSLDELHTGSASIVCILNDFYPKEVNVKWKVDGVVQNKGIQESTTEQNSKDSTYSLSSTLTMSSTEYQSHEKFSCEVTHKSLASTLVKSFQRSECQRE
B9: FEL_19F07_2.2 (antibody)
heavy: DVQLVESGGNLVKPGGSLRLTCVASGFTFSDYYMAWVRQAPGKGLQWVANINYDGSSTYYLDSLKSRFTISRDNAKNTLYLQMNSLKTEDTATYYCARGLTWDFDVWGQGTLVTVSSASTTAPSVFPLAPSCGTTSGATVALACLVLGYFPEPVTVSWNSGALTSGVHTFPAVLQASGLYSLSSMVTVPSSRWLSDTFTCNVAHPPSNTKVDKTVRKTDHPPGPKPCDCPKCPPPEAAGAPSIFIFPPKPKDTLSISRTPEVTCLVVDLGPDDSDVQITWFVDNTQVYTAKTSPREEQFNSTYRVVSVLPILHQDWLKGKEFKCKVNSKSLPSPIERTISKAKGQPHEPQVYVLPPAQEELSRNKVSVTCLIKSFHPPDIAVEWEITGQPEPENNYRTTPPQLDSDGTYFVYSKLSVDRSHWQRGNTYTCSVSHEALHSHHTQKSLTQSPGK
light: DITMTQSPGSLAGSPGQQVTMNCKASQDVDTAVAWYQQKPGQHPKLLIYLASTRHTGVPDRFSGSGSGTDFTLTISNLQAEDVASYYCQQYSRFPLTFGQGTRSDAQPSVFLFQPSLDELHTGSASIVCILNDFYPKEVNVKWKVDGVVQNKGIQESTTEQNSKDSTYSLSSTLTMSSTEYQSHEKFSCEVTHKSLASTLVKSFQRSECQRE

Key:
[1] = target: Canine_OSMR_hlgG1_Fc (canine); experiment: SPR Biacore
Canine_OSMR_hlgG1_Fc (canine), sequence (chain, as listed by the source limits assumed, form in doubt): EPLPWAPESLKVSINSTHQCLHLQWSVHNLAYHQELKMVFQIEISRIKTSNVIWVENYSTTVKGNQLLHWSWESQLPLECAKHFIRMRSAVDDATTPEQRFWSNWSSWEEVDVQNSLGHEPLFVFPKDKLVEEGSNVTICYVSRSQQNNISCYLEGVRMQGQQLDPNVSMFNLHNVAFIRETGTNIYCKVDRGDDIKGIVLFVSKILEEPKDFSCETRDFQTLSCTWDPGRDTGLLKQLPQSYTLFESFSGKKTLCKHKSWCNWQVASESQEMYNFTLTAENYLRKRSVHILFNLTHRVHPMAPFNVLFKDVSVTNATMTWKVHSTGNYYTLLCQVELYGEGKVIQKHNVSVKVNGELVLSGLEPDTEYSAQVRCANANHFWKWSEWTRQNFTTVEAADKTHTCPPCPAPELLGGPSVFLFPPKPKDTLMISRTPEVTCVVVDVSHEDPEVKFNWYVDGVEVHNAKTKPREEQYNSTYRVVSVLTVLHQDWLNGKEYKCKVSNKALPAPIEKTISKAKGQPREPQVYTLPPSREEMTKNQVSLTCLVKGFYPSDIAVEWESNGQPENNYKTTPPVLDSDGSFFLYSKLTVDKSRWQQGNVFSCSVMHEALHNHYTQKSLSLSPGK

[2] = target: Feline_OSMR_hlgG1_Fc (feline); experiment: SPR Biacore
Feline_OSMR_hlgG1_Fc (feline), sequence (chain, as listed by the source limits assumed, form in doubt): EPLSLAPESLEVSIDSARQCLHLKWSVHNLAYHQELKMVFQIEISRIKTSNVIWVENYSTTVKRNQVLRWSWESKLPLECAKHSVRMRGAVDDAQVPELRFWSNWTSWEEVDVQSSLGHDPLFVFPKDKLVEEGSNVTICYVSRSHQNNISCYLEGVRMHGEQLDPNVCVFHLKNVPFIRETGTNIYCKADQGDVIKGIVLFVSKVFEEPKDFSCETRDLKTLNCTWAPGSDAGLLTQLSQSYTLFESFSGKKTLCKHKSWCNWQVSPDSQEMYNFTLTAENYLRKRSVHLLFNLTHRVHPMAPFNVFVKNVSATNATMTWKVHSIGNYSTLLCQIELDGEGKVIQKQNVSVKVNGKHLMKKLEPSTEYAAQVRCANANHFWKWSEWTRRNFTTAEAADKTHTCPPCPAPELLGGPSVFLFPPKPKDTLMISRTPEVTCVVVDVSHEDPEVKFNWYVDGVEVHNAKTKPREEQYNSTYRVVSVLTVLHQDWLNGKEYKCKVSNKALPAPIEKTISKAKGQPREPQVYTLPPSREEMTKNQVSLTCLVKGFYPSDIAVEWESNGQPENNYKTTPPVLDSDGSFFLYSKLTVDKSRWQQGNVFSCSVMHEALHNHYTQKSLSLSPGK

Row | Binder | Kd [1] [nM] | koff [1] [s⁻¹] | kon [1] [M⁻¹ s⁻¹] | Kd [2] [nM] | koff [2] [s⁻¹] | kon [2] [M⁻¹ s⁻¹]
1 | B1 | 4.99 | 0.000903 | 181000 | 1.21 | 0.000457 | 376000
2 | B2 | 43.6 | 0.003 | 68700 | 41.1 | 0.00423 | 103000
3 | B3 | 9.13 | 0.000334 | 36600 | 0.32 | 3.55e-05 | 111000
4 | B4 | 8.3 | 0.00022 | 26400 | 0.198 | 1.12e-05 | 56700
5 | B5 |  |  |  | 24 | 0.00113 | 47000
6 | B6 | 10.3 | 0.000294 | 28500 | 0.783 | 6.37e-05 | 81300
7 | B7 |  |  |  | 0.108 | 4.07e-07 | 3790
8 | B8 | 31 | 0.000327 | 10500 | 0.435 | 1.95e-05 | 44700
9 | B9 | 4.4 | 0.000215 | 48800 | 0.00332 | 5.62e-07 | 169000
